{
  "source": "paper PMC6404586",
  "key": {"C3d (human) [1]": {"target": "C3d (human) (UniProt P01024)", "sequence (P01024 1002-1303)": "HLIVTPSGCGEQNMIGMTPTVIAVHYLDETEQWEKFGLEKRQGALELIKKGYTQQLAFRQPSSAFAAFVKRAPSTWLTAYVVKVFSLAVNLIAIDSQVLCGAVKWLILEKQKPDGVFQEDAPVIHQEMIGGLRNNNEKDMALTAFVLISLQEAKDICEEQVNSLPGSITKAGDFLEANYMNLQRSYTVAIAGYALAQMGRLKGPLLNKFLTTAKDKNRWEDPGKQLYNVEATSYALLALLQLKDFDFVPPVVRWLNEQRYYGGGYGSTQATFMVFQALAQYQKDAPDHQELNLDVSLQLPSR", "experiment": "SEC; CIP and C3d loaded separately or mixed in equimolar concentration onto a Superdex column; MW from a calibration curve"}, "C3b (human)": {"target": "C3b (human) (UniProt P01024)", "experiment": "ELISA; 100 ng of C3, C3b or C3d coated; increasing concentrations of CIP; anti-CIP antibody; apparent Kd as reciprocal of fitted Ka"}, "C3d (human) [2]": {"target": "C3d (human) (UniProt P01024)", "experiment": "ELISA; 100 ng of C3, C3b or C3d coated; increasing concentrations of CIP; anti-CIP antibody; apparent Kd as reciprocal of fitted Ka"}, "complement C3 (human)": {"target": "complement C3 (human)", "experiment": "ELISA; 100 ng of C3, C3b or C3d coated; increasing concentrations of CIP; anti-CIP antibody; apparent Kd as reciprocal of fitted Ka"}, "C3d (human) [3]": {"target": "C3d (human) (UniProt P01024)", "experiment": "SPR; BIAcore X100; C3d covalently immobilised on CM5 chip (250 response units); CIP 0.0390-5 μM flowed; PBS with 0.005% Tween 20; 22°C; 1:1 Langmuir model; apparent Kd"}},
  "data": [
    {"substance": "complement interfering protein (CIP) (natural protein)", "values": [
      {"measurement": "stoichiometry N", "setting": "C3d (human) [1]", "value": 1},
      {"measurement": "Kd", "setting": "C3b (human)", "value": 0.0824, "unit": "µM"},
      {"measurement": "Kd", "setting": "C3d (human) [2]", "value": 0.076, "unit": "µM"},
      {"measurement": "Kd", "setting": "complement C3 (human)", "value": 0.0848, "unit": "µM"},
      {"measurement": "Kd", "setting": "C3d (human) [3]", "value": 0.079, "unit": "µM"},
      {"measurement": "koff", "setting": "C3d (human) [3]", "value": 0.00085, "unit": "s⁻¹"},
      {"measurement": "kon", "setting": "C3d (human) [3]", "value": 10800, "unit": "M⁻¹ s⁻¹"}
    ]}
  ]
}
